Assay results: PMC3131385, “TBP Binding-Induced Folding of the Glucocorticoid Receptor AF1 Domain Facilitates Its Interaction with Steroid Receptor Coactivator-1” (PLoS ONE, 2011)

T1: TBPC, 181 C-terminal residues of human TATA box binding protein (TBP) (human, UniProt P20226 159-339)
T1 chain: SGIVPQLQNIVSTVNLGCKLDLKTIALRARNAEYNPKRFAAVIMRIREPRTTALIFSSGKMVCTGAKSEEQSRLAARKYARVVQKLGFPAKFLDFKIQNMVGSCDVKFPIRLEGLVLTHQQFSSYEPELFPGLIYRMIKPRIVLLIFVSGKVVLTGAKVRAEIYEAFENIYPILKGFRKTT

B1: TBPC, 181 C-terminal residues of human TATA box binding protein (TBP) (domain or fragment, UniProt P20226 159-339, looked up)
chain: T1 chain
notes: source: E. coli BL21(DE3), purified (NTA column, imidazole step-gradient)
B2: glucocorticoid receptor (GR) N-terminal activation function domain AF1 (domain or fragment, human, UniProt P04150 77-262, looked up)
chain: DLSKAVSLSMGLYMGETETKVMGNDLGFPQQGQISLSSGETDLKLLEESIANLNRSTSVPENPKSSASTAVSAAPTEKEFPKTHSDVSSEQQHLKGQTGTNGGNVKLYTTDQSTFDILQDLEFSSGSPGKETNESPWRSDLLIDENCLLSPLAGEDDSFLLEGNSNEDCKPLILPDTKPKIKDNGD
notes: human glucocorticoid receptor, AF1 domain, amino acid residues 77-262; made from human GR cDNA digested with BglII; also called GR AF1
B3: GR AF1:TBPC complex (complex, human)
chain 1: B2 chain
chain 2: T1 chain
notes: human glucocorticoid receptor, AF1 domain, amino acid residues 77-262; as m1; as m2; AF1, TBPC and the nuclear extract were mixed at once; only AF1 was detected on the blot; also called AF1 complexed with TBPC; source: purified AF1 and purified TBPC (10 µg) mixed together with HeLa nuclear extract

Experiments:
[1] = target: B2; experiment: circular dichroism titration; far-UV CD at 22°C, AF1 fixed at 4.5 µM, TBPC varied (AF1:TBPC 1:0.25 to 1:2); ellipticity at 220 nm, experimental against theoretical sum; settings: both partners purified
[2] = target: B2; experiment: SPR; TBPc immobilised on C1 chip (Fc2, 200-250 RU, through ionic interaction), AF1 as analyte 0.2-6.4 µM, multi-cycle kinetics, room temperature, 0.01 M HEPES pH 7.4, 0.15 M NaCl, 50 µM EDTA, 0.05% Tween-20; 1:1 Langmuir model, KD = kd/ka; settings: both partners purified
[3] = target: T1, TBPC, 181 C-terminal residues of human …; experiment: SPR
[4] = target: B1; experiment: SPR; TBPc immobilised on C1 chip (Fc2, 200-250 RU, through ionic interaction), AF1 as analyte 0.2-6.4 µM, multi-cycle kinetics, room temperature, 0.01 M HEPES pH 7.4, 0.15 M NaCl, 50 µM EDTA, 0.05% Tween-20; 1:1 Langmuir model, KD = kd/ka; settings: both partners purified
[5] = target: T2, steroid receptor coactivator-1 (SRC-1) (human (endogenous in HeLa), UniProt Q15788 1-1441); experiment: co-IP; SRC-1 antibody on protein A/G-agarose beads; HeLa nuclear extract (0.5 mg total protein) mixed with 10 µg purified AF1 and/or TBPC, 4°C; blot with GR AF1 antibody; settings: one partner purified
T2 construct: source: endogenous, HeLa nuclear extract
T2 sequence (Q15788 whole entry): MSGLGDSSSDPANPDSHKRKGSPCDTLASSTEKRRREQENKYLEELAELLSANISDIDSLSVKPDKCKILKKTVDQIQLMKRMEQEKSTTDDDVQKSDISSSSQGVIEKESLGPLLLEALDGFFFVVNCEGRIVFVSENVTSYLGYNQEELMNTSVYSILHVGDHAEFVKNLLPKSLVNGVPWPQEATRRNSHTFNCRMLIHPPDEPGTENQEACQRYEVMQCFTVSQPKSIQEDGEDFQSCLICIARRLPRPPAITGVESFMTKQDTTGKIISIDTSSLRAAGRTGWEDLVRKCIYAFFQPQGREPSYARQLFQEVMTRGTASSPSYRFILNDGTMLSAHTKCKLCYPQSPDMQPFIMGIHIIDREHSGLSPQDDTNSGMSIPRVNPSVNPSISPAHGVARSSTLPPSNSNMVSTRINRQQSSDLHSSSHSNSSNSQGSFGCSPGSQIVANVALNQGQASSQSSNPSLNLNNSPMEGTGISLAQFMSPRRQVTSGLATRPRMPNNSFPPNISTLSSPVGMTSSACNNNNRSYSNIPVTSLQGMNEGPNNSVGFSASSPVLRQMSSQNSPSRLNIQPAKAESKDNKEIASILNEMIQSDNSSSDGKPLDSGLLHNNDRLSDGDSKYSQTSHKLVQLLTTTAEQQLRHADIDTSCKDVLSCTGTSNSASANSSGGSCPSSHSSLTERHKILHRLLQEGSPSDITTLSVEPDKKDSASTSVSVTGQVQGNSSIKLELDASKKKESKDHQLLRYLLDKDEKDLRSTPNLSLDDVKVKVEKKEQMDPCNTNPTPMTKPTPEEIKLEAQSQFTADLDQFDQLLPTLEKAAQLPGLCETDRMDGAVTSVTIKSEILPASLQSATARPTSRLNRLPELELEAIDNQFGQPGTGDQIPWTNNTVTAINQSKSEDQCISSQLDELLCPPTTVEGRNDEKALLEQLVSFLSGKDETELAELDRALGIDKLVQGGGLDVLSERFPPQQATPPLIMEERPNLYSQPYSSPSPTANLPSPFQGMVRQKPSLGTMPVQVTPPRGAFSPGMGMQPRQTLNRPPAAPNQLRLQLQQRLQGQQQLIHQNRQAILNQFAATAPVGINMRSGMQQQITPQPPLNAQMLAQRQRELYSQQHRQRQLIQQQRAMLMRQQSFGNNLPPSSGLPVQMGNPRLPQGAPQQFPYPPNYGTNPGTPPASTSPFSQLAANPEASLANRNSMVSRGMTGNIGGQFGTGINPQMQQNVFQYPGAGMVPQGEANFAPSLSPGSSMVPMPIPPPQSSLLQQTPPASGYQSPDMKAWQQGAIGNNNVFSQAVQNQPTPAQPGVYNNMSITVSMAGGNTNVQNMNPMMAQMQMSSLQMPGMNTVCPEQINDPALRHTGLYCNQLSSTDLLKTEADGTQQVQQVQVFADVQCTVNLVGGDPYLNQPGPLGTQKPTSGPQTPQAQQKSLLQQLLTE

Binder: B1
stoichiometry N [1]: ~1
Kd [2]: 460 nM

Binder: B2
koff [3]: 0.00143 s⁻¹
stoichiometry N [4]: 1

Binder: B3
fold increase against AF1 alone [5]: ~8 fold
